Laboratory results taken from patent US20240408238A1.

Target: Nme2Cas9 expressed from plasmid in HEK293T cells (human-codon-optimized, NLSs and 3xHA tag) (Neisseria meningitidis strain De11444)
Experiment: cell-based or functional assay

AcrIIC1Nme
genome editing in HEK293T cells at varied ratios of Acr plasmid to Cas9 plasmid: ratio giving full inhibition (mass ratio Acr plasmid:Nme2Cas9 plasmid): 2

AcrIIC4Hpa
genome editing in HEK293T cells at varied ratios of Acr plasmid to Cas9 plasmid: ratio giving full inhibition (mass ratio Acr plasmid:Nme2Cas9 plasmid): 1
